According to patent US20260234276A1 (DOMAIN THERAPEUTICS, published 2026):
Values joined by “and” are separate entries in the source; they are usually repeats but may differ in a detail not shown here. Identical values can stand only once.

Assays:
[1] = molecular target: T1, human CCR8 (human, UniProt P51685 1-355); assay: cell-based or functional assay
[2] = molecular target: pm5 (human, sulfated tyrosines at Y15 and Y17); assay: ELISA on coated peptide [cont.]
Experimental: (§1) The specific binding properties of antibodies were evaluated by ELISA with coated CCR8 related peptides (500 ng/mL) in carbonate/bicarbonate buffer. Different peptides were used as described in Table 1 (see Example 1). Each anti-CCR8 mAb was tested at 1 μg/mL then diluted at 1/10. After an incubation at room temperature during 90 min, unbound mAbs were removed by washings. […] After washings, 3,3′,5,5′-tetramethylbenzidine (TMB) (Interchim, Montlugon, France) was added for 15 min. Then the optical density (OD) was determined by using a multiplate reader (Tecan, Lyon, France) and correlated with mAb reactivity on the panel of coated peptides.

[3] = molecular target: pm6 (human, sulfated tyrosines at Y16 and Y17); assay: ELISA on coated peptide [cont.]
Experimental: as §1

[4] = molecular target: pm3 (human, sulfated tyrosine at Y17); assay: ELISA on coated peptide [cont.]
Experimental: as §1

[5] = molecular target: pm8 (human, sulfated tyrosines at Y15, Y16 and Y17); assay: ELISA on coated peptide [cont.]
Experimental: as §1

[6] = molecular target: T1, human CCR8; assay: flow cytometry, hCCR8 transfected CHOK1 cells
Experimental: Briefly, 1·10⁵ cells per well in a 96 well plate were incubated with a dilution of unconjugated anti-CCR8 mAb at 10 μg/mL then diluted at 1/3.33, 4 dilution points (during 30 min at 4° C.). […] To determine EC50 value, 8 concentrations of anti-CCR8 mAb were tested. Unbound antibodies were washed away with PBS (Invitrogen by Thermofisher Scientific, Illkirch-Graffenstaden, France) supplemented by 2% Fetal Bovine Serum (Invitrogen by Thermofisher Scientific, Illkirch-Graffenstaden, France) and 2 mM EDTA (Invitrogen by Thermofisher Scientific, Illkirch-Graffenstaden, France). Subsequently, cells are centrifuged (5 min at 400 g) and bound antibody is detected with F(ab′)₂-Goat anti-Mouse IgG (H+L) Cross-Adsorbed Secondary Antibody, Alexa Fluor 488 (dilution 1/500) (Invitrogen by Thermofisher Scientific, Illkirch-Graffenstaden, France) or with F(ab′)₂-Goat anti-Human IgG Fc Secondary Antibody, PE (Invitrogen by Thermofisher Scientific, Illkirch-Graffenstaden, France) (dilution 1/1000) at 4° C. for 30 min. Detection reagent is washed away and cells are centrifuged (5 min at 400 g) and resuspended in 30 μL PBS. Bound detection antibody is quantified on a MacsQuant16 (Miltenyi, Gladbach, Germany) (B1 or B2 channel, 5000 events per acquisition).

[7] = molecular target: T1, human CCR8; assay: cell-based or functional assay; remark: listed apart in the source
[8] = molecular target: T1, human CCR8; assay: cell-based or functional assay; remark: listed apart in the source

Chain of pm5 (human, sulfated tyrosines at Y15 and Y17) (peptide, as listed by the source): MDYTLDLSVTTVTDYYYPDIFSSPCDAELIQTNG
Chain of pm8 (human, sulfated tyrosines at Y15, Y16 and Y17) (peptide, as listed by the source): as above
Chain of pm3 (human, sulfated tyrosine at Y17) (peptide, as listed by the source): as above
Chain of pm6 (human, sulfated tyrosines at Y16 and Y17) (peptide, as listed by the source): as above

hCCL1 (100 nM) residual response, Protocol #2, mAb 0.08 µg/mL [1] [%] | hCCL1 (100 nM) residual response, Protocol #2, mAb 0.4 µg/mL [1] [%] | hCCL1 (100 nM) residual response, Protocol #2, mAb 10 µg/mL [1] [%] | hCCL1 (100 nM) residual response, Protocol #3, mAb 0.05 µg/mL [1] [%] | hCCL1 (100 nM) residual response, Protocol #3, mAb 0.5 µg/mL [1] [%] | hCCL1 (100 nM) residual response, Protocol #3, mAb 5 µg/mL [1] [%] | binding result [2] | binding result [3] | binding result [4] | binding result [5] | % positive cells [6] [%] | MFI fold change to isotype ctrl [6] [fold] | IC50 (Gi2 BRET, pH 6.5) [7] | IC50 (Gi2 BRET, pH 7.4) [7] | ADCC % Max lysis, NK cells Donor 3 [8] [%] | ADCC % Max lysis, NK cells Donor 4 [8] [%] | ADCC EC50, NK cells Donor 3 [8] [nM] | ADCC EC50, NK cells Donor 4 [8] [nM] | Binder
93 | 89 | 48 | 92 | 68 | 50 | binds | binds | binds | binds | 83 | 17.6 | 0.014 µg/ml and 0.095 nM | 0.004 µg/ml and 0.026 nM | – | – | – | – | 3-48 (antibody, V domains shown) VH: QVQLVETGGGLVRPGNSLKLSCVTSGFTFSNYRMHWLRQPPGKRLEWIAVIKVKSDNYGANYAESVKGRFTISRDDSKSSVYLQVNRLREEDTATYYCSSPTYPGSSGFAYWGQGTLVTVSA VL: DIQMTQTTSSLSASLGDRVTISCRASQDISNYLNWYQQKPDGTVKLLIYYTSRLHSGVPSRFSGSGSGTDYSLTISNLEQEDIATYFCQQGNKFPPTFGGGTKLEIN
– | – | – | – | – | – | – | – | – | – | – | – | – | – | 29 | 29 | 0.195 | 0.282 | 3-92 (antibody) heavy: not shown light: DVVMTQTPLSLPVSLGDQASISCRCTQSLLHTNGDTYLHWYLQKPGQSPKLLIYKVSNRFSGVPDRFSGSGSGTDFTLKISRVEAEDLGVYFCSQSTHVPYTFGGGTKLEIKRTVAAPSVFIFPPSDEQLKSGTASVVCLLNNFYPREAKVQWKVDNALQSGNSQESVTEQDSKDSTYSLSSTLTLSKADYEKHKVYACEVTHQGLSSPVTKSFNRGEC
– | – | – | – | – | – | – | – | – | – | – | – | – | – | 25 | 28 | 0.218 | 0.053 | 3-91 (antibody) heavy: not shown light: DVVMTQTPLSLPVSLGDQASISCRCTQSLLHTNGDTYLHWYLQKPGQSPKLLIYKVSNRFSGVPDRFSGSGSGTDFTLKISRVEAEDLGVYFCSQSTHVPYTFGGGTKLEIKRTVAAPSVFIFPPSDEQLKSGTASVVCLLNNFYPREAKVQWKVDNALQSGNSQESVTEQDSKDSTYSLSSTLTLSKADYEKHKVYACEVTHQGLSSPVTKSFNRGEC
99 | 102 | 95 | 102 | 97 | 67 | binds | binds | binds | binds | 73.4 | 6.52 | 0.036 µg/ml and 0.237 nM | 0.006 µg/ml and 0.039 nM | – | – | – | – | 3-49 (antibody, V domains shown) VH: EVQLQQSGPELVKPGASVKISCKTSGYTFTEYTMHWVKQSHGKSLEWIGGINPNNGDTNYNQKFMGKATLTVDKSSSTAYMELRSLTSEDSAVYYCVRRLLRRGAMDYWGQGTSVTVSS VL: DIVLTQSPASLAVSLGQRATISCRASENVEYYGTSLMQWFQQKPGQPPKLLIYAASNVDSGVPARFSGSGSGTDFSLNIHPVEEDDIAMYFCQQSRKVPWTFGGGTKLDIK

Second part, the binder before the results:

Binder | hCCL1 (100 nM) residual response, Protocol #2, mAb 0.08 µg/mL [1] [%] | hCCL1 (100 nM) residual response, Protocol #2, mAb 0.4 µg/mL [1] [%] | hCCL1 (100 nM) residual response, Protocol #2, mAb 10 µg/mL [1] [%] | hCCL1 (100 nM) residual response, Protocol #3, mAb 0.05 µg/mL [1] [%] | hCCL1 (100 nM) residual response, Protocol #3, mAb 0.5 µg/mL [1] [%] | hCCL1 (100 nM) residual response, Protocol #3, mAb 5 µg/mL [1] [%] | binding result [2] | binding result [3] | binding result [4] | binding result [5] | % positive cells [6] [%] | MFI fold change to isotype ctrl [6] [fold] | IC50 (Gi2 BRET, pH 6.5) [7] | IC50 (Gi2 BRET, pH 7.4) [7] | ADCC % Max lysis, NK cells Donor 3 [8] [%] | ADCC % Max lysis, NK cells Donor 4 [8] [%] | ADCC EC50, NK cells Donor 3 [8] [nM] | ADCC EC50, NK cells Donor 4 [8] [nM]
3-90 (antibody) heavy: not shown light: DVVMTQTPLSLPVSLGDQASISCRCTQSLLHTNGDTYLHWYLQKPGQSPKLLIYKVSNRFSGVPDRFSGSGSGTDFTLKISRVEAEDLGVYFCSQSTHVPYTFGGGTKLEIKRTVAAPSVFIFPPSDEQLKSGTASVVCLLNNFYPREAKVQWKVDNALQSGNSQESVTEQDSKDSTYSLSSTLTLSKADYEKHKVYACEVTHQGLSSPVTKSFNRGEC | – | – | – | – | – | – | – | – | – | – | – | – | – | – | 14 | 15 | 0.793 | 1.52
3-102 (antibody) heavy: not shown light: DIQMTQTTSSLSASLGDRVTISCRASQDISNYLNWYQQKPDGTVKLLIYYTSRLHSGVPSRFSGSGSGTDYSLTISNLEQEDIATYFCQQGNKFPPTFGGGTKLEINRTVAAPSVFIFPPSDEQLKSGTASVVCLLNNFYPREAKVQWKVDNALQSGNSQESVTEQDSKDSTYSLSSTLTLSKADYEKHKVYACEVTHQGLSSPVTKSFNRGEC | – | – | – | – | – | – | – | – | – | – | – | – | – | – | 16 | 18 | 0.291 | 0.406
3-45 (antibody, V domains shown) VH: EVQLVETGGGLVQPKGSLKLSCAASGFTFNANAMNWVRQAPGKGLEWVARIRSKSNNYATYYADSVKDRFTISRDDSQSMLYLQMNNLKTEDTAMYYCVRGSDNYIFYAMDYWGQGTSVTVSS VL: DIVMTQAAPSVPVTPGESVSISCRSSKSLLHSNGNTYLYWFLQRPGQSPQLLIYRMSNLASGVPDRFSGSGSGTAFTLRISRVEAEDVGVYYCMQHLEYPFTFGGGTKLEIK | 99 | 85 | 68 | 86 | 75 | 48 | binds | binds | binds | binds | 67.8 | 6.11 | 0.031 µg/ml and 0.208 nM | 0.017 µg/ml and 0.115 nM | – | – | – | –
3-30 (antibody, V domains shown) VH: EVQLVESGGGLVQPKGSLRLSCAASGFTFNAYAMNWVRQAPGKGLEWVARIRSKSNNYATYYGDSVKDRFTISRDDSQTMLYLQMNNLKTEDTAMYYCVRGREAYYRYDGDYYAMDYWGQGTSVTVSS VL: not shown | 70 | 44 | 51 | 78 | 55 | 43 | binds | binds | binds | binds | 68.5 | 5.12 | 0.053 µg/ml and 0.355 nM | 0.063 µg/ml and 0.421 nM | – | – | – | –
3-29 (antibody, V domains shown) VH: QVHLVETGGGLVRPGNSLKLSCVTSGFTLSNYRMHWLRQPPGKRLEWIAVIKVKSDNYGANYAESVKGRFTISRDDAKSSVYLQMNRLREEDTATYYCSRPDGFSPFVYWGQGTLVTVSA VL: DIKMTQSPSSMYASLGERVTITCKASQDINSYLSWFQQKPGKSPKTLIYRANRLVDGVPSRFSGSGSGQDYFLTISSLEYEDMGIYYCLQYGEFPPTFGAGTKLELK | 73 | 51 | 24 | 69 | 38 | 30 | binds | binds | binds | binds | 71.3 | 6.26 | 0.011 µg/ml and 0.073 nM | 0.007 µg/ml and 0.047 nM | – | – | – | –
